The source of these data is the supplement of paper PMC10567573.

Sequences and labels used below:
B1: NEK8 (parent)
chain: VVGTPCYISPELCEGKPYNQKSDI
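Also: lentivirally expressed fusions sorted by FACS into six bins by GFP to DsRed ratio, PSI derived from sequencing read proportions per bin multiplied by bin number.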

The variants in the series derive from B1. Briefly: protein stability index of a GFP-peptide fusion (GPS, HEK-293T) (PSI 1-6); higher = more stable. Particulars: c terminus: a fixed tail appended.
As to VVGTPCYISPEGCEGKPYNQKSDI [L12G], the protein stability index worked out at 4.29.

For the variant VVGTPCYISPERCEGKPYNQKSDI [L12R], the protein stability index was 3.35.

On to VVGTPCYISPETCEGKPYNQKSDI [L12T], for which the protein stability index stood at 3.15.

For the variant VVGTPCYISPEMCEGKPYNQKSDI [L12M], the protein stability index came out at 2.76.

With VVGTPCYISPEQCEGKPYNQKSDI [L12Q], the protein stability index amounted to 2.71.

With VVGTPCYISPEECEGKPYNQKSDI [L12E], the protein stability index is 4.11.

Take VVGTPCYISPEACEGKPYNQKSDI [L12A]: the protein stability index turned out to be 3.1.

As to VVGTPCYISPECCEGKPYNQKSDI [L12C], the protein stability index came to 3.29.

Turning to VVGTPCYISPEICEGKPYNQKSDI [L12I], the protein stability index worked out at 2.93.

Regarding VVGTPCYISPEKCEGKPYNQKSDI [L12K], the protein stability index is 3.69.

On to VVGTPCYISPEVCEGKPYNQKSDI [L12V], for which the protein stability index worked out at 2.83.

On to VVGTPCYISPEPCEGKPYNQKSDI [L12P], for which the protein stability index turned out to be 3.6.

As to VVGTPCYISPEYCEGKPYNQKSDI [L12Y], the protein stability index was found to be 2.27.

VVGTPCYISPEFCEGKPYNQKSDI [L12F]: the protein stability index is 2.15.

Regarding VVGTPCYISPENCEGKPYNQKSDI [L12N], the protein stability index was 3.62.

Regarding VVGTPCYISPESCEGKPYNQKSDI [L12S], the protein stability index worked out at 3.15.

In the case of VVGTPCYISPEWCEGKPYNQKSDI [L12W], the protein stability index is 1.83.

On to VVGTPCYISWELCEGKPYNQKSDI [P10W], for which the protein stability index was determined as 1.9.

In the case of VVGTPCYISQELCEGKPYNQKSDI [P10Q], the protein stability index is 3.49.

Consider VVGTPCYISFELCEGKPYNQKSDI [P10F], for which the protein stability index came to 2.03.

As to VVGTPCYISGELCEGKPYNQKSDI [P10G], the protein stability index worked out at 3.56.

As to VVGTPCYISLELCEGKPYNQKSDI [P10L], the protein stability index amounted to 2.01.

In the case of VVGTPCYISNELCEGKPYNQKSDI [P10N], the protein stability index amounted to 3.44.

Turning to VVGTPCYISMELCEGKPYNQKSDI [P10M], the protein stability index was 2.24.

Regarding VVGTPCYISEELCEGKPYNQKSDI [P10E], the protein stability index stood at 3.6.

With VVGTPCYISKELCEGKPYNQKSDI [P10K], the protein stability index came out at 3.56.

VVGTPCYISIELCEGKPYNQKSDI [P10I]: the protein stability index turned out to be 1.49.

On to VVGTPCYISRELCEGKPYNQKSDI [P10R], for which the protein stability index came to 2.98.

Regarding VVGTPCYISVELCEGKPYNQKSDI [P10V], the protein stability index is 1.75.

VVGTPCYISDELCEGKPYNQKSDI [P10D]: the protein stability index was found to be 3.23.

Take VVGTPCYISHELCEGKPYNQKSDI [P10H]: the protein stability index was 3.66.

Take VVGTPCYISSELCEGKPYNQKSDI [P10S]: the protein stability index was 3.39.

For VVGTPCYISAELCEGKPYNQKSDI [P10A], the protein stability index stood at 2.96.

With VVGTPCYISCELCEGKPYNQKSDI [P10C], the protein stability index worked out at 2.22.

In the case of VVGTPCYISYELCEGKPYNQKSDI [P10Y], the protein stability index was 1.91.

Turning to VVGTPCYISTELCEGKPYNQKSDI [P10T], the protein stability index stood at 2.74.

Turning to VVGTPCYISPELCEGTPYNQKSDI [K16T], the protein stability index was 2.54.

Turning to VVGTPCYISPELCEGYPYNQKSDI [K16Y], the protein stability index was 1.96.

With VVGTPCYISPELCEGWPYNQKSDI [K16W], the protein stability index turned out to be 1.55.

On to VVGTPCYISPELCEGVPYNQKSDI [K16V], for which the protein stability index came to 2.78.

Take VVGTPCYISPELCEGAPYNQKSDI [K16A]: the protein stability index turned out to be 2.16.

For VVGTPCYISPELCEGSPYNQKSDI [K16S], the protein stability index was found to be 2.17.

For VVGTPCYISPELCEGQPYNQKSDI [K16Q], the protein stability index is 2.79.

For VVGTPCYISPELCEGLPYNQKSDI [K16L], the protein stability index turned out to be 2.07.

In the case of VVGTPCYISPELCEGMPYNQKSDI [K16M], the protein stability index was found to be 2.81.

Consider VVGTPCYISPELCEGFPYNQKSDI [K16F], for which the protein stability index amounted to 2.11.

For VVGTPCYISPELCEGEPYNQKSDI [K16E], the protein stability index is 3.05.

For the variant VVGTPCYISPELCEGHPYNQKSDI [K16H], the protein stability index turned out to be 2.15.

As to VVGTPCYISPELCEGGPYNQKSDI [K16G], the protein stability index amounted to 2.55.

On to VVGTPCYISPELCEGNPYNQKSDI [K16N], for which the protein stability index came to 3.13.

VVGTPCYISPELCEGRPYNQKSDI [K16R]: the protein stability index worked out at 2.62.

Regarding VVGTPCYISPELCEGCPYNQKSDI [K16C], the protein stability index was 2.43.

Consider VVGTPCYISPELCEGPPYNQKSDI [K16P], for which the protein stability index stood at 2.15.

With VVGTPCYISPELCEGDPYNQKSDI [K16D], the protein stability index was found to be 3.14.

In the case of VVGTPCYISPELCEGIPYNQKSDI [K16I], the protein stability index was determined as 2.02.

Take VVGTPCYISPELVEGKPYNQKSDI [C13V]: the protein stability index was 2.95.

In the case of VVGTPCYISPELREGKPYNQKSDI [C13R], the protein stability index amounted to 3.27.

In the case of VVGTPCYISPELGEGKPYNQKSDI [C13G], the protein stability index is 3.08.

VVGTPCYISPELEEGKPYNQKSDI [C13E]: the protein stability index was 2.98.

Take VVGTPCYISPELMEGKPYNQKSDI [C13M]: the protein stability index turned out to be 2.79.

On to VVGTPCYISPELYEGKPYNQKSDI [C13Y], for which the protein stability index amounted to 2.79.

VVGTPCYISPELLEGKPYNQKSDI [C13L]: the protein stability index stood at 2.88.

As to VVGTPCYISPELFEGKPYNQKSDI [C13F], the protein stability index is 2.19.

As for VVGTPCYISPELHEGKPYNQKSDI [C13H], the protein stability index was 2.92.

VVGTPCYISPELWEGKPYNQKSDI [C13W]: the protein stability index is 1.92.

For the variant VVGTPCYISPELQEGKPYNQKSDI [C13Q], the protein stability index was 2.79.

With VVGTPCYISPELNEGKPYNQKSDI [C13N], the protein stability index is 3.23.

On to VVGTPCYISPELAEGKPYNQKSDI [C13A], for which the protein stability index is 2.71.

As to VVGTPCYISPELSEGKPYNQKSDI [C13S], the protein stability index came to 2.9.

With VVGTPCYISPELTEGKPYNQKSDI [C13T], the protein stability index worked out at 2.94.

Regarding VVGTPCYISPELDEGKPYNQKSDI [C13D], the protein stability index came out at 3.34.

Regarding VVGTPCYISPELKEGKPYNQKSDI [C13K], the protein stability index was determined as 3.38.

As to VVGTPCYISPELPEGKPYNQKSDI [C13P], the protein stability index is 2.3.

Regarding VVGTPCYISPELIEGKPYNQKSDI [C13I], the protein stability index was 2.48.

For VVGTPCYISPMLCEGKPYNQKSDI [E11M], the protein stability index came to 2.32.

In the case of VVGTPCYISPHLCEGKPYNQKSDI [E11H], the protein stability index came out at 2.03.

On to VVGTPCYISPALCEGKPYNQKSDI [E11A], for which the protein stability index worked out at 2.68.

With VVGTPCYISPRLCEGKPYNQKSDI [E11R], the protein stability index came to 2.49.

Take VVGTPCYISPKLCEGKPYNQKSDI [E11K]: the protein stability index was found to be 2.74.

On to VVGTPCYISPLLCEGKPYNQKSDI [E11L], for which the protein stability index turned out to be 1.8.

Regarding VVGTPCYISPVLCEGKPYNQKSDI [E11V], the protein stability index stood at 1.59.

Regarding VVGTPCYISPYLCEGKPYNQKSDI [E11Y], the protein stability index stood at 2.05.

For VVGTPCYISPNLCEGKPYNQKSDI [E11N], the protein stability index turned out to be 2.66.

As to VVGTPCYISPGLCEGKPYNQKSDI [E11G], the protein stability index stood at 2.54.

For the variant VVGTPCYISPSLCEGKPYNQKSDI [E11S], the protein stability index is 2.7.

As for VVGTPCYISPTLCEGKPYNQKSDI [E11T], the protein stability index turned out to be 2.48.

Consider VVGTPCYISPDLCEGKPYNQKSDI [E11D], for which the protein stability index worked out at 3.16.

Take VVGTPCYISPFLCEGKPYNQKSDI [E11F]: the protein stability index came out at 1.5.

Take VVGTPCYISPPLCEGKPYNQKSDI [E11P]: the protein stability index is 1.76.

As to VVGTPCYISPILCEGKPYNQKSDI [E11I], the protein stability index is 2.52.

Regarding VVGTPCYISPCLCEGKPYNQKSDI [E11C], the protein stability index came to 1.68.

In the case of VVGTPCYISPQLCEGKPYNQKSDI [E11Q], the protein stability index was 2.31.

Take VVGTPCYISPWLCEGKPYNQKSDI [E11W]: the protein stability index was determined as 1.08.

Regarding VVGTPCYIYPELCEGKPYNQKSDI [S9Y], the protein stability index was determined as 1.55.
